Earlier results on one substance are cited in patent US20040126825A1, “Methods of screening and using inhibitors of angiogenesis” (Allergan, Inc, priority 2001, published 2004).

This data set deals with MMP-2. Conditions: cultured breast carcinoma cells; Deryugina et al. 2001.

As for vitronectin: a specific ligand of αvβ3, the “activation of MMP-2 (conversion from pro-form to active form)” value is “inhibited”.
